Measurements published in the supplement of paper PMC9112550, “Optimization of the antimicrobial peptide Bac7 by deep mutational scanning” (BMC Biology, 2022).

Test system: Escherichia coli TOP10
Test: shrunken log2 fold change of peptide-encoding DNA abundance (4.5 h post-induction vs induction); higher = less antimicrobial activity (less host growth inhibition)
Settings: time post-induction: 4.5 h; library: site-saturation at positions 5, 18, 19, 20
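Also: peptides expressed intracellularly from a pBAD plasmid library in pooled LB shake-flask culture, induced with 0.3% L-arabinose, DNA abundance read by NGS, three biological replicates, DESeq2 with apeglm shrinkage.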

Row | Sequence | shrunken log2 fold change
1 | RRIRERPPRLPRPRPRPKVCPRP | -0.0496
2 | RRIRERPPRLPRPRPRPKVGPRP | 0.0685
3 | RRIRERPPRLPRPRPRPKWYPRP | -0.175
4 | RRIRERPPRLPRPRPRPKYFPRP | -0.0979
5 | RRIRERPPRLPRPRPRPLDFPRP | -0.353
6 | RRIRERPPRLPRPRPRPLDQPRP | 0.09
7 | RRIRERPPRLPRPRPRPLEAPRP | 0.105
8 | RRIRERPPRLPRPRPRPLEYPRP | -0.494
9 | RRIRERPPRLPRPRPRPLFRPRP | 1.09
10 | RRIRERPPRLPRPRPRPLGMPRP | -0.294
11 | RRIRERPPRLPRPRPRPLHVPRP | -0.268
12 | RRIRERPPRLPRPRPRPLIYPRP | -0.682
13 | RRIRERPPRLPRPRPRPLKKPRP | 0.0403
14 | RRIRERPPRLPRPRPRPLLYPRP | -0.309
15 | RRIRERPPRLPRPRPRPLMKPRP | -0.502
16 | RRIRERPPRLPRPRPRPLMTPRP | -0.295
17 | RRIRERPPRLPRPRPRPLNWPRP | -0.373
18 | RRIRERPPRLPRPRPRPLPCPRP | -0.315
19 | RRIRERPPRLPRPRPRPLPHPRP | -0.438
20 | RRIRERPPRLPRPRPRPLSMPRP | -0.242
21 | RRIRERPPRLPRPRPRPLTQPRP | -0.281
22 | RRIRERPPRLPRPRPRPLWFPRP | 0.174
23 | RRIRERPPRLPRPRPRPMCKPRP | -0.373
24 | RRIRERPPRLPRPRPRPMEGPRP | 0.00131
25 | RRIRERPPRLPRPRPRPMENPRP | -0.104

Row | Sequence | shrunken log2 fold change
26 | RRIRERPPRLPRPRPRPMEWPRP | 0.0338
27 | RRIRERPPRLPRPRPRPMFEPRP | 0.000206
28 | RRIRERPPRLPRPRPRPMFSPRP | -0.104
29 | RRIRERPPRLPRPRPRPMGFPRP | 0.0499
30 | RRIRERPPRLPRPRPRPMGVPRP | 0.22
31 | RRIRERPPRLPRPRPRPMMCPRP | -0.0137
32 | RRIRERPPRLPRPRPRPMMLPRP | -0.0415
33 | RRIRERPPRLPRPRPRPMNKPRP | -0.765
34 | RRIRERPPRLPRPRPRPMNRPRP | -0.401
35 | RRIRERPPRLPRPRPRPMPIPRP | -0.18
36 | RRIRERPPRLPRPRPRPMPLPRP | 0.000847
37 | RRIRERPPRLPRPRPRPMQTPRP | 0.0432
38 | RRIRERPPRLPRPRPRPMRRPRP | -0.0292
39 | RRIRERPPRLPRPRPRPMRSPRP | 0.119
40 | RRIRERPPRLPRPRPRPMSGPRP | 0.0249
41 | RRIRERPPRLPRPRPRPMTMPRP | -0.136
42 | RRIRERPPRLPRPRPRPMVEPRP | -0.0932
43 | RRIRERPPRLPRPRPRPMWEPRP | 0.169
44 | RRIRERPPRLPRPRPRPMWMPRP | -0.0314
45 | RRIRERPPRLPRPRPRPNAIPRP | 0.185
46 | RRIRERPPRLPRPRPRPNCSPRP | -0.202
47 | RRIRERPPRLPRPRPRPNDVPRP | 0.0254
48 | RRIRERPPRLPRPRPRPNECPRP | -0.154
49 | RRIRERPPRLPRPRPRPNEMPRP | 0.0665
50 | RRIRERPPRLPRPRPRPNERPRP | -0.105

Row | Sequence | shrunken log2 fold change
51 | RRIRERPPRLPRPRPRPNEYPRP | -0.726
52 | RRIRERPPRLPRPRPRPNFRPRP | -0.479
53 | RRIRERPPRLPRPRPRPNGPPRP | -0.0578
54 | RRIRERPPRLPRPRPRPNGTPRP | -0.0811
55 | RRIRERPPRLPRPRPRPNIDPRP | -0.0761
56 | RRIRERPPRLPRPRPRPNLIPRP | -0.421
57 | RRIRERPPRLPRPRPRPNMSPRP | -0.179
58 | RRIRERPPRLPRPRPRPNPFPRP | 0.0226
59 | RRIRERPPRLPRPRPRPNQSPRP | -0.236
60 | RRIRERPPRLPRPRPRPNQVPRP | -0.0305
61 | RRIRERPPRLPRPRPRPNQYPRP | -0.674
62 | RRIRERPPRLPRPRPRPNRLPRP | -0.0671
63 | RRIRERPPRLPRPRPRPNSYPRP | -0.433
64 | RRIRERPPRLPRPRPRPNTGPRP | -0.385
65 | RRIRERPPRLPRPRPRPNVIPRP | -1.38
66 | RRIRERPPRLPRPRPRPNVQPRP | -0.403
67 | RRIRERPPRLPRPRPRPNYAPRP | -0.0181
68 | RRIRERPPRLPRPRPRPPACPRP | 0.0779
69 | RRIRERPPRLPRPRPRPPARPRP | 0.451
70 | RRIRERPPRLPRPRPRPPAYPRP | -0.173
71 | RRIRERPPRLPRPRPRPPCNPRP | -0.392
72 | RRIRERPPRLPRPRPRPPCQPRP | 0.0382
73 | RRIRERPPRLPRPRPRPPDPPRP | 0.106
74 | RRIRERPPRLPRPRPRPPDQPRP | 0.155
75 | RRIRERPPRLPRPRPRPPDYPRP | -0.202

Row | Sequence | shrunken log2 fold change
76 | RRIRERPPRLPRPRPRPPEKPRP | -0.0038
77 | RRIRERPPRLPRPRPRPPFAPRP | 0.403
78 | RRIRERPPRLPRPRPRPPFHPRP | -0.139
79 | RRIRERPPRLPRPRPRPPFLPRP | -0.075
80 | RRIRERPPRLPRPRPRPPGIPRP | -0.0106
81 | RRIRERPPRLPRPRPRPPGNPRP | 0.106
82 | RRIRERPPRLPRPRPRPPHAPRP | 0.229
83 | RRIRERPPRLPRPRPRPPHFPRP | 0.568
84 | RRIRERPPRLPRPRPRPPIMPRP | -0.314
85 | RRIRERPPRLPRPRPRPPIRPRP | -0.0192
86 | RRIRERPPRLPRPRPRPPKDPRP | 0.00712
87 | RRIRERPPRLPRPRPRPPLDPRP | 0.0357
88 | RRIRERPPRLPRPRPRPPLNPRP | -0.192
89 | RRIRERPPRLPRPRPRPPMDPRP | -0.214
90 | RRIRERPPRLPRPRPRPPMWPRP | 0.245
91 | RRIRERPPRLPRPRPRPPNNPRP | -0.186
92 | RRIRERPPRLPRPRPRPPNYPRP | -0.201
93 | RRIRERPPRLPRPRPRPPPWPRP | 0.318
94 | RRIRERPPRLPRPRPRPPQGPRP | 0.158
95 | RRIRERPPRLPRPRPRPPQLPRP | 0.194
96 | RRIRERPPRLPRPRPRPPQQPRP | 0.00573
97 | RRIRERPPRLPRPRPRPPRSPRP | 0.375
98 | RRIRERPPRLPRPRPRPPSGPRP | 0.275
99 | RRIRERPPRLPRPRPRPPVVPRP | -0.0806
100 | RRIRERPPRLPRPRPRPPYDPRP | -1.12

Row | Sequence | shrunken log2 fold change
101 | RRIRERPPRLPRPRPRPPYLPRP | -0.0371
102 | RRIRERPPRLPRPRPRPPYQPRP | -0.1
103 | RRIRERPPRLPRPRPRPQAIPRP | -0.0062
104 | RRIRERPPRLPRPRPRPQCIPRP | 0.0341
105 | RRIRERPPRLPRPRPRPQCVPRP | -0.0437
106 | RRIRERPPRLPRPRPRPQENPRP | -0.164
107 | RRIRERPPRLPRPRPRPQFNPRP | -0.167
108 | RRIRERPPRLPRPRPRPQFWPRP | 0.172
109 | RRIRERPPRLPRPRPRPQGDPRP | -0.0405
110 | RRIRERPPRLPRPRPRPQGGPRP | -0.0586
111 | RRIRERPPRLPRPRPRPQHFPRP | 0.131
112 | RRIRERPPRLPRPRPRPQHLPRP | 0.0167
113 | RRIRERPPRLPRPRPRPQHYPRP | -0.398
114 | RRIRERPPRLPRPRPRPQIFPRP | -0.0392
115 | RRIRERPPRLPRPRPRPQKIPRP | -0.12
116 | RRIRERPPRLPRPRPRPQLFPRP | 0.0984
117 | RRIRERPPRLPRPRPRPQLTPRP | -0.576
118 | RRIRERPPRLPRPRPRPQMLPRP | -0.0206
119 | RRIRERPPRLPRPRPRPQMMPRP | -0.0543
120 | RRIRERPPRLPRPRPRPQPNPRP | -0.084
121 | RRIRERPPRLPRPRPRPQRAPRP | 0.254
122 | RRIRERPPRLPRPRPRPQSEPRP | -0.000579
123 | RRIRERPPRLPRPRPRPQSFPRP | -0.0705
124 | RRIRERPPRLPRPRPRPQSTPRP | -0.319
125 | RRIRERPPRLPRPRPRPQWHPRP | -0.479

Row | Sequence | shrunken log2 fold change
126 | RRIRERPPRLPRPRPRPQWKPRP | -0.0957
127 | RRIRERPPRLPRPRPRPQWMPRP | 0.0273
128 | RRIRERPPRLPRPRPRPQWPPRP | -0.0675
129 | RRIRERPPRLPRPRPRPQYIPRP | -0.219
130 | RRIRERPPRLPRPRPRPRAMPRP | 0.0549
131 | RRIRERPPRLPRPRPRPRDEPRP | 0.307
132 | RRIRERPPRLPRPRPRPRDPPRP | 0.0576
133 | RRIRERPPRLPRPRPRPRFLPRP | -0.18
134 | RRIRERPPRLPRPRPRPRFQPRP | 0.2
135 | RRIRERPPRLPRPRPRPRKDPRP | -0.245
136 | RRIRERPPRLPRPRPRPRKWPRP | 0.316
137 | RRIRERPPRLPRPRPRPRMLPRP | -0.0942
138 | RRIRERPPRLPRPRPRPRPDPRP | 0.205
139 | RRIRERPPRLPRPRPRPRQWPRP | -0.0536
140 | RRIRERPPRLPRPRPRPRRCPRP | 0.0702
141 | RRIRERPPRLPRPRPRPRSKPRP | 0.00172
142 | RRIRERPPRLPRPRPRPRVVPRP | 0.069
143 | RRIRERPPRLPRPRPRPRWMPRP | 0.0378
144 | RRIRERPPRLPRPRPRPRYAPRP | -0.118
145 | RRIRERPPRLPRPRPRPSAPPRP | 0.18
146 | RRIRERPPRLPRPRPRPSESPRP | -0.577
147 | RRIRERPPRLPRPRPRPSFDPRP | -0.417
148 | RRIRERPPRLPRPRPRPSFEPRP | -0.132
149 | RRIRERPPRLPRPRPRPSFYPRP | -0.308
150 | RRIRERPPRLPRPRPRPSGHPRP | -0.289
